± gives the uncertainty stated by the source.
B1: Zinc finger homeobox protein 3, residues 2643 to 2698; numbered along this chain, Q15911 (parent)
chain: RLRTTITPEQLEILYQKYLLDSNPTRKMLDHIAHEVGLKKRVVQVWFQNTRARERK

Variants of: B1
Test: abundance fitness (aPCA) (normalised: wild type 0, dead -1); higher = more abundant; growth selection in yeast, the domain comes from the species named
Settings: Homo sapiens

Q: For T25Q, which abundance fitness is on record?
A: -0.505 ± 0.16

Q: For T25F, which abundance fitness is on record?
A: -0.605 ± 0.23

Q: Which abundance fitness does the source give for T25A here?
A: -0.243 ± 0.087

Q: With T25E as the variant, how does the abundance fitness read?
A: -0.081 ± 0.099

Q: Which abundance fitness does the source give for T25M here?
A: -0.256 ± 0.12

Q: Which abundance fitness does the source give for T25C here?
A: -0.191 ± 0.12

Q: With T25S as the variant, how does the abundance fitness read?
A: -0.267 ± 0.089

Q: With V43R as the variant, how does the abundance fitness read?
A: -1.03 ± 0.11

Q: With V43Q as the variant, how does the abundance fitness read?
A: -1 ± 0.16

Q: With H34N as the variant, how does the abundance fitness read?
A: -0.044 ± 0.18

Q: With H34S as the variant, how does the abundance fitness read?
A: 0.009 ± 0.089

Q: For H34G, which abundance fitness is on record?
A: 0.062 ± 0.093

Q: With H31V as the variant, how does the abundance fitness read?
A: 0.134 ± 0.08

Q: Which abundance fitness does the source give for H31W here?
A: -0.251 ± 0.14

Q: For H31Q, which abundance fitness is on record?
A: 0.169 ± 0.15

Q: With H31S as the variant, how does the abundance fitness read?
A: 0.215 ± 0.086

Q: With H31K as the variant, how does the abundance fitness read?
A: -0.166 ± 0.15

Q: For H31L, which abundance fitness is on record?
A: 0.056 ± 0.095

Q: For P8S, which abundance fitness is on record?
A: -0.09 ± 0.1

Q: Which abundance fitness does the source give for P8G here?
A: 0.193 ± 0.079

Q: With P8N as the variant, how does the abundance fitness read?
A: -0.06 ± 0.3

Q: Which abundance fitness does the source give for K56R here?
A: -0.35 ± 0.17

Q: For K56Q, which abundance fitness is on record?
A: 0.032 ± 0.21

Q: Which abundance fitness does the source give for K56T here?
A: 0.01 ± 0.23

Q: With E12M as the variant, how does the abundance fitness read?
A: 0.335 ± 0.11

Q: Which abundance fitness does the source give for E12P here?
A: -0.87 ± 0.15

Q: With R3P as the variant, how does the abundance fitness read?
A: -0.081 ± 0.15

Q: For R3H, which abundance fitness is on record?
A: 0.199 ± 0.15

Q: Which abundance fitness does the source give for R3F here?
A: 0.037 ± 0.15

Q: For R3N, which abundance fitness is on record?
A: 0.173 ± 0.17

Q: Which abundance fitness does the source give for L38Q here?
A: -0.734 ± 0.16

Q: With L38Y as the variant, how does the abundance fitness read?
A: -1 ± 0.41

Q: For L38F, which abundance fitness is on record?
A: -0.819 ± 0.22

Q: For Q10C, which abundance fitness is on record?
A: -0.52 ± 0.086

Q: For Q10H, which abundance fitness is on record?
A: -0.356 ± 0.074

Q: Which abundance fitness does the source give for I32N here?
A: -1.25 ± 0.25

Q: For I32K, which abundance fitness is on record?
A: -0.807 ± 0.14

Q: Which abundance fitness does the source give for I32H here?
A: -0.527 ± 0.26

Q: Which abundance fitness does the source give for G37A here?
A: -0.366 ± 0.084

Q: Which abundance fitness does the source give for F47K here?
A: -0.812 ± 0.21

Q: With F47E as the variant, how does the abundance fitness read?
A: -0.736 ± 0.15

Q: With F47V as the variant, how does the abundance fitness read?
A: -0.902 ± 0.14

Q: For F47W, which abundance fitness is on record?
A: -0.106 ± 0.095

Q: With T7R as the variant, how does the abundance fitness read?
A: -0.443 ± 0.082

Q: For T7L, which abundance fitness is on record?
A: -0.212 ± 0.083

Q: With T7W as the variant, how does the abundance fitness read?
A: -0.719 ± 0.12

Q: With T7S as the variant, how does the abundance fitness read?
A: -0.169 ± 0.092

Q: Which abundance fitness does the source give for T7G here?
A: -0.072 ± 0.077

Q: With R1N as the variant, how does the abundance fitness read?
A: 0.354 ± 0.26

Q: With T50I as the variant, how does the abundance fitness read?
A: -0.247 ± 0.11

Q: For T50H, which abundance fitness is on record?
A: -0.11 ± 0.17

Q: For T50M, which abundance fitness is on record?
A: 0.092 ± 0.13

Q: Which abundance fitness does the source give for D30Q here?
A: 0.1 ± 0.14

Q: Which abundance fitness does the source give for D30K here?
A: -0.214 ± 0.13

Q: For D30S, which abundance fitness is on record?
A: -0.108 ± 0.085

Q: With P24C as the variant, how does the abundance fitness read?
A: -0.96 ± 0.17

Q: With P24K as the variant, how does the abundance fitness read?
A: -0.935 ± 0.21

Q: For P24A, which abundance fitness is on record?
A: -0.82 ± 0.096

Q: Which abundance fitness does the source give for P24M here?
A: -0.777 ± 0.16

Q: Which abundance fitness does the source give for P24W here?
A: -0.165 ± 0.088

Q: Which abundance fitness does the source give for P24L here?
A: -0.79 ± 0.11

Q: With P24F as the variant, how does the abundance fitness read?
A: -0.644 ± 0.17

Q: With P24R as the variant, how does the abundance fitness read?
A: -0.828 ± 0.082

Q: For T5Q, which abundance fitness is on record?
A: 0.17 ± 0.15

Q: For T5M, which abundance fitness is on record?
A: 0.286 ± 0.15

Q: For S22H, which abundance fitness is on record?
A: -0.24 ± 0.17

Q: For S22C, which abundance fitness is on record?
A: -0.136 ± 0.11

Q: With V36L as the variant, how does the abundance fitness read?
A: -0.145 ± 0.094

Q: For V36S, which abundance fitness is on record?
A: -0.134 ± 0.094

Q: For V36W, which abundance fitness is on record?
A: -0.495 ± 0.14

Q: For V36I, which abundance fitness is on record?
A: 0.191 ± 0.12

Q: For T4P, which abundance fitness is on record?
A: 0.149 ± 0.13

Q: For T4V, which abundance fitness is on record?
A: -0.106 ± 0.092

Q: With T4C as the variant, how does the abundance fitness read?
A: -0.56 ± 0.19

Q: With T4G as the variant, how does the abundance fitness read?
A: -0.002 ± 0.08

Q: With L2Y as the variant, how does the abundance fitness read?
A: 0.222 ± 0.16

Q: With L2I as the variant, how does the abundance fitness read?
A: 0.217 ± 0.13

Q: For L2H, which abundance fitness is on record?
A: -0.006 ± 0.2

Q: For L2W, which abundance fitness is on record?
A: -0.134 ± 0.13

Q: With L2P as the variant, how does the abundance fitness read?
A: -0.227 ± 0.16

Q: With Q48N as the variant, how does the abundance fitness read?
A: -0.21 ± 0.23

Q: With Q48P as the variant, how does the abundance fitness read?
A: -0.615 ± 0.15

Q: With Q48Y as the variant, how does the abundance fitness read?
A: -0.089 ± 0.21
